Measurements: patent US20170233472A1 (MacroGenics, published 2017)
Where a chain is given by its changes, count along the chain named. In names and notes the source's numbering stands.

Assays:
[1] = target: T1, His-tagged soluble human ROR1 (shROR1-His) (human, UniProt Q01973 30-406); test: SPR (Biacore), diabody captured via anti-E/K-coil, shROR1-His as analyte
T1 construct: also called ROR1 protein; immobilized ROR1; not shown: His-Tag
Description: The binding kinetics of DART-1 to DART-6, DART-10 to DART-17, DART-20 to DART-33 was investigated using Biacore analysis in which ROR1 protein was passed over immobilized diabodies. Briefly, each diabody construct was captured on immobilized anti-E/K-coil surface and was incubated with shROR1-His at 25 and 100 nM, and the kinetics of binding were determined via Biacore analysis.

[2] = target: human ROR1 expressed on the surface of cancer cells (human, UniProt Q01973 30-937); test: cell-based or functional assay
[3] = target: T1, His-tagged soluble human ROR1 …; test: SPR (BIACORE), trivalent binding molecule 6.25 to 100 nM passed over immobilized shROR1-His
Description: The binding kinetics of each of the ROR1×CD3×CD8 trivalent binding molecules to ROR1 was investigated using BIACORE® analysis in which each trivalent binding molecule (6.25 to 100 nM) was passed over immobilized shROR1-His essentially as described above.

T1 sequence (Q01973 30-406): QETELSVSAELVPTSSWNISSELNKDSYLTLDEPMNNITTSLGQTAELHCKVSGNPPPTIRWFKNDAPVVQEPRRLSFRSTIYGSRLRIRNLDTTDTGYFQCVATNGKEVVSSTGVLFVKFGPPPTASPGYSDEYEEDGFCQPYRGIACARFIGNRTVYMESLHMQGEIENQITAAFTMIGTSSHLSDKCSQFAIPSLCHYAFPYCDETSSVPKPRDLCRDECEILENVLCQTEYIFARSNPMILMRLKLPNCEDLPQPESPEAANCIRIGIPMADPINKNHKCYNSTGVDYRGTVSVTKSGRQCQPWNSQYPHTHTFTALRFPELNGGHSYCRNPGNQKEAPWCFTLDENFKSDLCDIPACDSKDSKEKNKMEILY
human ROR1 expressed on the surface of cancer cells, sequence (Q01973 30-937): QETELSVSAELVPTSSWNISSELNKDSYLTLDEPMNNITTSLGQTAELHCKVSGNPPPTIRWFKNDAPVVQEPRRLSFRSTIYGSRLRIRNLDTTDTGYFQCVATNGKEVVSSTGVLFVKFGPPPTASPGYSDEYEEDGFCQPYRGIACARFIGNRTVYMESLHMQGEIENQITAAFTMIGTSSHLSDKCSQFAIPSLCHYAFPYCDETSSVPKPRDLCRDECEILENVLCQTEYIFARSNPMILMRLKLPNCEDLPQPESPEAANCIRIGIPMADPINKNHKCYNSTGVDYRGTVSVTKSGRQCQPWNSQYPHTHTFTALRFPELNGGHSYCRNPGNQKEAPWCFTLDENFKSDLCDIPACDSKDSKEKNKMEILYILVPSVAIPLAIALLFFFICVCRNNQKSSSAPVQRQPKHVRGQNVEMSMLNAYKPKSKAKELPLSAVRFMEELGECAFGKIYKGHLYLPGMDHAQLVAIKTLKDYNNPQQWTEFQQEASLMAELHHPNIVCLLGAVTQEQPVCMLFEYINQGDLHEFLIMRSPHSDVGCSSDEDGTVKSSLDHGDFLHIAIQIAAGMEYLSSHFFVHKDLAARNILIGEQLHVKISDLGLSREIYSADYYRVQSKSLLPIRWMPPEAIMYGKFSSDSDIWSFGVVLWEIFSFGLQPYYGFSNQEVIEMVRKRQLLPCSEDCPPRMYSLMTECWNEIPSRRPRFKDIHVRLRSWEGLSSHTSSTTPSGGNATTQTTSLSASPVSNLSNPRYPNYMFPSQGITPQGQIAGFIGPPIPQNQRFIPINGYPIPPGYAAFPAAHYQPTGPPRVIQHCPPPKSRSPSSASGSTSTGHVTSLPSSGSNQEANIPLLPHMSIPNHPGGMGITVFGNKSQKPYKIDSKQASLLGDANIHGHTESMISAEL

B1: DART-2 (bispecific antibody)
chain 1: QLVLTQSPSASASLGSSVKLTCTLSSGHKTDTIDWYQQQPGKAPRYLMKLEGSGSYNKGSGVPDRFGSGSSSGADWYLTISSLQSEDEADYYCGTDYPGNYLFGGGTQLTVLGGGGSGGGGEVQLVESGGGLVQPGGSLRLSCAASGFTFSTYAMNWVRQAPGKGLEWVGRIRSKYNNYATYYADSVKGRFTISRDDSKNSLYLQMNSLKTEDTAVYYCVRHGNFGNSYVSWFAYWGQGTLVTVSSGGCGGGKVAALKEKVAALKEKVAALKEKVAALKE
chain 2: QAVVTQEPSLTVSPGGTVTLTCRSSTGAVTTSNYANWVQQKPGQAPRGLIGGTNKRAPWTPARFSGSLLGGKAALTITGAQAEDEADYYCALWYSNLWVFGGGTKLTVLGGGGSGGGGQEQLVESGGGLVQPGGSLRLSCAASGFTFSDYYMSWVRQAPGKGLEWVATIYPSSGKTYYADSVKGRFTISSDNAKNSLYLQMNSLRAEDTAVYYCARDSYADDAALFDIWGQGTTVTVSSGGCGGGEVAALEKEVAALEKEVAALEKEVAALEK
notes: ROR1×CD3 two chain diabody; VL(2): R71W; VH: parental
**Q.** What does the source list for B1?
**A.** Kd [1]: 1.5 nM; fold enhancement of binding relative to DART-1 [1]: > 2 fold

B2: DART-3 (bispecific antibody)
chain 1: B1 chain 1 with K49N, W76R
chain 2: B1 chain 2
notes: ROR1×CD3 two chain diabody; VL(3): K49N; VH: parental
**Q.** For B2, which Kd [1] is on record?
**A.** 4 nM

B3: DART-4 (bispecific antibody)
chain 1: B1 chain 1 with S16G, W76R
chain 2: B1 chain 2
notes: ROR1×CD3 two chain diabody; VL(4): S17G; VH: parental
**Q.** For B3, which Kd [1] is on record?
**A.** 3.7 nM

B4: DART-5 (bispecific antibody)
chain 1: B1 chain 1 with N57S, W76R
chain 2: B1 chain 2
notes: ROR1×CD3 two chain diabody; VL(5): N54S; VH: parental
**Q.** Which Kd [1] does the source give for B4 here?
**A.** 6 nM

B5: DART-6 (bispecific antibody)
chain 1: B1 chain 1 with S70I, W76R
chain 2: B1 chain 2
notes: ROR1×CD3 two chain diabody; VL(6): S66I; VH: parental
**Q.** B5 was tested. Which Kd [1] did it give?
**A.** 5.7 nM

B6: DART-10 (bispecific antibody)
chain 1: B1 chain 1 with W76R, Y97N
chain 2: B1 chain 2
notes: ROR1×CD3 two chain diabody; VL(10): Y92N; VH: parental
**Q.** For B6, which Kd [1] is on record?
**A.** 2.7 nM

B7: DART-11 (bispecific antibody)
chain 1: B1 chain 1 with Y97N
chain 2: B1 chain 2
notes: ROR1×CD3 two chain diabody; VL(11): R71W/Y92N; VH: parental
**Q.** B7 was tested. Which Kd [1] did it give?
**A.** 1.2 nM

B8: DART-12 (bispecific antibody)
chain 1: B1 chain 1 with S70I
chain 2: B1 chain 2
notes: ROR1×CD3 two chain diabody; VL(12): S66I/R71W; VH: parental
**Q.** Which Kd [1] does the source give for B8 here?
**A.** 1.7 nM

B9: DART-13 (bispecific antibody)
chain 1: B1 chain 1 with S70I, Y97N
chain 2: B1 chain 2
notes: ROR1×CD3 two chain diabody; VL(13): S66I/R71W/Y92N; VH: parental
**Q.** B9 was tested. Which Kd [1] did it give?
**A.** 1.4 nM

B10: DART-14 (bispecific antibody)
chain 1: B1 chain 1 with W76R
chain 2: B1 chain 2 with F186L
notes: ROR1×CD3 two chain diabody; VL: parental; VH(1): F67L
**Q.** Which Kd [1] does the source give for B10 here?
**A.** 4.5 nM

B11: DART-16 (bispecific antibody)
chain 1: B1 chain 1 with W76R
chain 2: B1 chain 2 with A215T
notes: ROR1×CD3 two chain diabody; VL: parental; VH(3): A93T
**Q.** B11 was tested. Which Kd [1] did it give?
**A.** 4.3 nM

B12: DART-17 (bispecific antibody)
chain 1: B1 chain 1 with W76R
chain 2: B1 chain 2 with N195Y
notes: ROR1×CD3 two chain diabody; VL: parental; VH(4): N76Y
**Q.** Which Kd [1] does the source give for B12 here?
**A.** 3.7 nM

B13: DART-20 (bispecific antibody)
chain 1: B1 chain 1
chain 2: B1 chain 2 with A215T
notes: ROR1×CD3 two chain diabody; VL(2): R71W; VH(3): A93T
**Q.** B13 was tested. Which Kd [1] did it give?
**A.** 1.3 nM

B14: DART-21 (bispecific antibody)
chain 1: B1 chain 1 with S70I, W76R
chain 2: B1 chain 2 with A215T
notes: ROR1×CD3 two chain diabody; VL(6): S66I; VH(3): A93T
**Q.** For B14, which Kd [1] is on record?
**A.** 4.8 nM

B15: DART-22 (bispecific antibody)
chain 1: B1 chain 1
chain 2: B1 chain 2 with F186L
notes: ROR1×CD3 two chain diabody; VL(2): R71W; VH(1): F67L
**Q.** For B15, which Kd [1] is on record?
**A.** 1.3 nM

B16: DART-23 (bispecific antibody)
chain 1: B1 chain 1
chain 2: B1 chain 2 with N195D
**Q.** With B16 as the binder, how does the “MR(%) (maximum response), redirected cell killing of HBL-2 cells (LDH release)” value [2] read?
**A.** 25.6%

**Q.** What about the “MR(%) (maximum response), redirected cell killing of JIMT-1 cells (LDH release)” value [2] of the same binder?
**A.** 37.3%

**Q.** And the “MR(%) (maximum response), redirected cell killing of Jeko-1 cells (LDH release)” value [2]?
**A.** 36.4%

B17: DART-24 (bispecific antibody)
chain 1: B1 chain 1 with W76R, Y97N
chain 2: B1 chain 2 with A215T
notes: ROR1×CD3 two chain diabody; VL(10): Y92N; VH(3): A93T
**Q.** How did the Kd [1] turn out when B17 was run?
**A.** 2.4 nM

B18: DART-25 (bispecific antibody)
chain 1: B1 chain 1
chain 2: B1 chain 2 with F186L, N195D, A215T
notes: ROR1×CD3 two chain diabody
**Q.** For B18, which “MR(%) (maximum response), redirected cell killing of HBL-2 cells (LDH release)” value [2] is on record?
**A.** 27%

**Q.** What about the “MR(%) (maximum response), redirected cell killing of JIMT-1 cells (LDH release)” value [2] of the same binder?
**A.** 40%

**Q.** What about the “MR(%) (maximum response), redirected cell killing of Jeko-1 cells (LDH release)” value [2] of the same binder?
**A.** 38.2%

**Q.** And the Kd [1]?
**A.** 1.2 nM

B19: DART-26 (bispecific antibody)
chain 1: B1 chain 1 with Y97N
chain 2: B1 chain 2 with A215T
notes: ROR1×CD3 two chain diabody; VL(11): R71W/Y92N; VH(3): A93T
**Q.** How did the Kd [1] turn out when B19 was run?
**A.** 1.2 nM

B20: DART-27 (bispecific antibody)
chain 1: B1 chain 1 with S70I
chain 2: B1 chain 2 with A215T
notes: ROR1×CD3 two chain diabody; VL(12): S66I R71W; VH(3): A93T
**Q.** How did the Kd [1] turn out when B20 was run?
**A.** 1.2 nM

B21: DART-28 (bispecific antibody)
chain 1: B1 chain 1 with S70I, Y97N
chain 2: B1 chain 2 with A215T
notes: ROR1×CD3 two chain diabody; VL(13): S66I/R71W/Y92N; VH(3): A93T
**Q.** How did the Kd [1] turn out when B21 was run?
**A.** 1.5 nM

B22: DART-29 (bispecific antibody)
chain 1: B1 chain 1 with Y97N
chain 2: B1 chain 2 with F186L, N195D, A215T
notes: ROR1×CD3 two chain diabody; VL(11): R71W/Y92N; VH(7): F67L/N76D/A93T
**Q.** Which Kd [1] does the source give for B22 here?
**A.** 1.3 nM

B23: DART-30 (bispecific antibody)
chain 1: B1 chain 1 with S70I
chain 2: B1 chain 2 with F186L, N195D, A215T
notes: ROR1×CD3 two chain diabody; VL(12): S66I/R71W; VH(7): F67L N76D A93T
**Q.** Which Kd [1] does the source give for B23 here?
**A.** 1.2 nM

B24: DART-31 (bispecific antibody)
chain 1: B1 chain 1 with S70I, Y97N
chain 2: B1 chain 2 with F186L, N195D, A215T
notes: ROR1×CD3 two chain diabody; VL(13): S66I/R71W/Y92N; VH(7): F67L/N76D/A93T
**Q.** How did the Kd [1] turn out when B24 was run?
**A.** 0.9 nM

B25: DART-33 (bispecific antibody)
chain 1: QLVLTQSPSASASLGSSVKLTCTLSSGHKTDTIDWYQQQPGKAPRYLMKLEGSGSYNKGSGVPDRFSGSSSGADWYLTISSLQSEDEADYYCGTDYPGNYLFGGGTQLTVLGGGGSGGGGEVQLVESGGGLVQPGGSLRLSCAASGFTFSTYAMNWVRQAPGKGLEWVGRIRSKYNNYATYYADSVKGRFTISRDDSKNSLYLQMNSLKTEDTAVYYCVRHGNFGNSYVSWFAYWGQGTLVTVSSGGCGGGKVAALKEKVAALKEKVAALKEKVAALKE
chain 2: B1 chain 2 with V155I, V182A, F186L, N195D, A215T
notes: ROR1×CD3 two chain diabody
**Q.** For B25, which Kd [1] is on record?
**A.** 1.3 nM

B26: TRIDENT-C (other)
chain 1: QLVLTQSPSASASLGSSVKLTCTLSSGHKTDTIDWYQQQPGKAPRYLMKLEGSGSYNKGSGVPDRFSGSSSGADWYLTISSLQSEDEADYYCGTDYPGNYLFGGGTQLTVLGGGGSGGGGEVQLVESGGGLVQPGGSLRLSCAASGFTFSTYAMNWVRQAPGKGLEWVGRIRSKYNNYATYYADSVKGRFTISRDDSKNSLYLQMNSLKTEDTAVYYCVRHGNFGNSYVSWFAYWGQGTLVTVSSASTKGEVAACEKEVAALEKEVAALEKEVAALEKGGGDKTHTCPPCPAPEAAGGPSVFLFPPKPKDTLMISRTPEVTCVVVDVSHEDPEVKFNWYVDGVEVHNAKTKPREEQYNSTYRVVSVLTVLHQDWLNGKEYKCKVSNKALPAPIEKTISKAKGQPREPQVYTLPPSREEMTKNQVSLWCLVKGFYPSDIAVEWESNGQPENNYKTTPPVLDSDGSFFLYSKLTVDKSRWQQGNVFSCSVMHEALHNHYTQKSLSLSPGK
chain 2: QAVVTQEPSLTVSPGGTVTLTCRSSTGAVTTSNYANWVQQKPGQAPRGLIGGTNKRAPWTPARFSGSLLGGKAALTITGAQAEDEADYYCALWYSNLWVFGGGTKLTVLGGGGSGGGGQEQLVESGGGLVQPGGSLRLSCAASGFTFSDYYMSWIRQAPGKGLEWVATIYPSSGKTYYADSAKGRLTISSDNAKDSLYLQMNSLRAEDTAVYYCTRDSYADDAALFDIWGQGTTVTVSSASTKGKVAACKEKVAALKEKVAALKEKVAALKE
chain 3: DIQMTQSPSSLSASVGDRVTITCKGSQDINNYLAWYQQKPGKAPKLLIYNTDILHTGVPSRFSGSGSGTDFTFTISSLQPEDIATYYCYQYNNGYTFGCGTKVEIKGGGGSGGGGSGGGGSQVQLVESGGGVVQPGRSLRLSCAASGFTFSDFGMNWVRQAPGKCLEWVALIYYDGSNKFYADSVKGRFTISRDNSKNTLYLQMNSLRAEDTAVYYCAKPHYDGYYHFFDSWGQGTLVTVSSVEPKSADKTHTCPPCPAPEAAGGPSVFLFPPKPKDTLMISRTPEVTCVVVDVSHEDPEVKFNWYVDGVEVHNAKTKPREEQYNSTYRVVSVLTVLHQDWLNGKEYKCKVSNKALPAPIEKTISKAKGQPREPQVYTLPPSREEMTKNQVSLSCAVKGFYPSDIAVEWESNGQPENNYKTTPPVLDSDGSFFLVSKLTVDKSRWQQGNVFSCSVMHEALHNRYTQKSLSLSPGK
notes: anti-ROR1-VL(14) and VH(8)
**Q.** With B26 as the binder, how does the Kd [3] read?
**A.** 0.19 nM

B27: TRIDENT-D (other)
chain 1: B26 chain 1
chain 2: B26 chain 2
heavy: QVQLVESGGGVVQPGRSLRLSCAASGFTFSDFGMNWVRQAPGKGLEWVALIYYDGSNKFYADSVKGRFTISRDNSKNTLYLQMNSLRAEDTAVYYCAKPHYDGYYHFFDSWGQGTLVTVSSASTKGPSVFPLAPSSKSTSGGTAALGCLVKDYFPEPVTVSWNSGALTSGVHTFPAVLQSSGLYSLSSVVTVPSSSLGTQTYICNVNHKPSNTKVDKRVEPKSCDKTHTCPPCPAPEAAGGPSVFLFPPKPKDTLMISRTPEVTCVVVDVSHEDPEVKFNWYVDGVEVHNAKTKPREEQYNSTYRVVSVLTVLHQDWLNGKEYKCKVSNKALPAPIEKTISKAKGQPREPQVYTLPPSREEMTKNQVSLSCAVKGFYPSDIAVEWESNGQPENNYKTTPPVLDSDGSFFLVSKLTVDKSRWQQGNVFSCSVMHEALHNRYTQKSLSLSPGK
light: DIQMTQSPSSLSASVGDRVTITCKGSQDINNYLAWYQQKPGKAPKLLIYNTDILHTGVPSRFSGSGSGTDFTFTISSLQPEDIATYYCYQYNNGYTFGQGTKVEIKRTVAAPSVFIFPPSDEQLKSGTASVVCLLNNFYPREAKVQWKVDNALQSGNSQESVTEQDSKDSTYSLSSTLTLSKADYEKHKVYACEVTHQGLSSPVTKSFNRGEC
**Q.** With B27 as the binder, how does the Kd [3] read?
**A.** 0.26 nM
